Assay results reported in patent US6635429B1.
Blank lines part the entries; values can stand above or below the binder they belong to.

Key:
[1] = biological target: bacterially-expressed hRAR-γ (human) (UniProt P13631); experiment: complementation gel retardation with bacterially-expressed hRAR-γ on β-RARE; cpm in the complex per µg of protein of the purification step

Specific Activity (cpm/µg) [1]: 7.75e+06 cpm/µg
B1: purified HeLa cell RBF (HAP-TSK) (receptor)
chain: MSWAARPPFLPQRHAAGQCGPVGVRKEMHCGVASRWRRRRPWLDPAAAAAAAVAGGEQQTPEPEPGEAGRDGMGDSGRDSRSPDSSSPNPLPQGVPPPSPPGPPLPPSTAPTLGGSGAPPPPPMPPPPLGSPFPVISSSMGSPGLPPPAPPGFSGPVSSPQINSTVSLPGGGSGPPEDVKPPVLGVRGLHCPPPPGGPGAGKRLCAICGDRSSGKHYGVYSCEGCKGFFKRTIRKDLTYSCRDNKDCTVDKRQRNRCQYCRYQKCLATGMKREAVQEERQRGKDKDGDGEGAGGAPEEMPVDRILEAELAVEQKSDQGVEGPGGTGGSGSSPNDPVTNICQAADKQLFTLVEWAKRIPHFSSLPLDDQVILLRAGWNELLIASFSHRSIDVRDGILLATGLHVHRNSAHSAGVGAIFDRVLTELVSKMRDMRMDKTELGCLRAIILFNPDAKGLSNPSEVEVLREKVYASLETYCKQKYPEQQGRFAKLLLRLPALRSIGLKCLEHLFFFKLIGDTPIDTFLMEMLEAPHQLA

OMPdecase activity of the DR1-URA3 reporter in yeast (mRXR-α (mouse)): 30 fold
B2: mRXR-α (receptor)
chain: MDTKHFLPLDFSTQVNSSSLNSPTGRGSMAVPSLHPSLGPGIGSPLGSPGQLHSPISTLSSPINGMGPPFSVISSPMGPHSMSVPTTPTLGFGTGSPQLNSPMNPVSSTEDIKPPLGLNGVLKVPAHPSGNMASFTKHICAICGDRSSGKHYGVYSCEGCKGFFKRTVRKDLTYTCRDNKDCLIDKRQRNRCQYCRYQKCLAMGMKREAVQEERQRGKDRNENEVESTSSANEDMPVEKILEAELAVEPKTETYVEANMGLNPSSPNDPVTNICQAADKQLFTLVEWAKRIPHFSELPLDDQVILLRAGWNELLIASFSHRSIAVKDGILLATGLHVHRNSAHSAGVGAIFDRVLTELVSKMRDMQMDKTELGCLRAIVLFNPDSKGLSNPAEVEALREKVYASLEAYCKHKYPEQPGRFAKLLLRLPALRSIGLKCLEHLFFFKLIGDTPIDTFLMEMLEAPHQAT
